Measurements published in patent US8796227B2, “Peptides for inhibiting chemokine binding to chemokine receptors” (Biokine Therapeutics Ltd., priority 2002, dated 2014).

Legend:
Assay in all cases: Biovalidation: laminar flow assay, chemokine and VCAM-1 activated adhesion of T cells
Type in all cases: cell-based
SDF-1α = target: T1, SDF-1α (Homo sapiens, UniProt P48061)
T1 construct: purchased PeproTech, Inc. 300-28A
Protocol: (§1) 50 ml blood was added to 10 ml Dextran (Dextran T-500 6% w/v) in PBS (phosphate buffer saline), and 7 ml citrate buffer (25 g citrate, 8 g citric acid in 500 ml PBS). The solution was incubated for 30 min at 25° C. 10 ml Ficoll 1077 (Sigma) was added to the bottom of the tube. The tube was then centrifuged at 2,000 rpm for 30 min, at 18° C., (with the brake mode of the centrifuge off). The interphase was collected and washed twice with 8 ml PBS-5% FCS (fetal calf serum), followed by centrifugation at 1,400 rpm, for 5 min, at 18° C. The cells were re-suspended in PBS-5% FCS at a concentration less than 10^8/ml. 2 ml of the cell solution were applied and incubated for 45 min at 25° C. on a Perspex Nylon wool column, which was pre-soaked with PBS-5% FCS. Each column was washed with 8 ml PBS-5% FCS and the cells (T-cells and erythrocytes) were eluted by 50 ml of 5 mM EDTA in PBS. A red pellet was obtained by centrifugation at 1,400 rpm, at 4° C., for 5 min, with the brake on. In order to perform lysis of the erythrocytes, the red pellet was re-suspended in 5 ml lysis-buffer (155 mM NH4Cl, 10 mM KHCO3, 0.1 mM EDTA, X0.1PBS) for 4 min, followed by immediate addition of 50 ml of PBS-EDTA.
(§2) Following centrifugation at 1,400 rpm, at 4° C., for 5 min with brake on, the pellet was washed again with 50 ml PBS-EDTA and re-centrifuged under the same conditions. A white pellet was obtained and re-suspended in RPMI/10% FCS/L-glutamine/sodium pyruvate/antibiotics at a concentration of 3^X10^6 cells/ml. The cells were incubated for 2 h at 37° C., followed by collection of the non-adherent cells. The cells were ready for use in experiments after overnight incubation at 37° C. […]
Laminar flow assays were performed as follows. […] The number of adherent cells resisting detachment by the elevated shear forces was determined after each interval by analysis of videotaped cell images, and was expressed as the percent of originally settled cells. […]

Eotaxin = target: T2, Eotaxin (Homo sapiens, UniProt P51671)
T2 construct: purchased PeproTech, Inc. 300-21

IL-8 = target: T3, IL-8 (Homo sapiens, UniProt P10145); set-up: key to Level of Antagonistic Effect / Level of Effect: + 20%; ++ 50%; +++ 100%; − No effect; conditions: VCAM-1
T3 construct: human IL-8, (72 amino acids) (Cat. No. 200-08M); purchased PeproTech, Inc. 200-08M
T3 sequence (P10145 28-99): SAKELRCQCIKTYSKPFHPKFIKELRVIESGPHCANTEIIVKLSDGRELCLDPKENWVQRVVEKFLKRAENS

MIG = target: T4, MIG (Homo sapiens, UniProt Q07325); conditions: T cell adhesion under flow, VCAM-1
T4 construct: purchased PeproTech, Inc. 300-26
T4 sequence (Q07325 23-125): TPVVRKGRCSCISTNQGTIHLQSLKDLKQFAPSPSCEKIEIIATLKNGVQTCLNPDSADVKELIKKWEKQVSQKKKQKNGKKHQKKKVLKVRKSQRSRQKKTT
Protocol: as §1, §2
Laminar flow assays were performed as follows. Polystyrene plates (B.D) were coated with soluble VCAM-1 at 10 μg/ml in the presence of 2 μg/ml HSA carrier. The plates were washed three times with PBS and blocked with HSA (20 μg/ml in PBS) for 2 hrs at room temperature. Alternatively, washed plates were coated with 10 μg/ml MIG chemokine in PBS for 30 min at room temperature, before being blocked with HSA. The plates were assembled as the lower wall of a parallel wall flow chamber and mounted on the stage of an inverted microscope. The peptide, as described previously, (10 μg/ml) was allowed to settle on the substrate coated chamber wall for 10 min, at 37° C. and then washed. T cells (5×10^6/ml, purity >98%) were suspended in binding buffer, perfused into the chamber and allowed to settle on the substrate coated chamber wall for 1 min, at 37° C. Flow was initiated and increased in 2 to 2.5 fold increments every 5 sec. generating controlled shear stresses on the wall. Cells were visualized in a 20× objective of an inverted phase-contrast Diaphot Microscope (Nikon, Japan) and photographed with a long integration LIS-700 CCD video camera (Applitech; Holon, Israel), connected to a video recorder (AG-6730 S-VHS, Panasonic, Japan). The number of adherent cells resisting detachment by the elevated shear forces was determined after each interval by analysis of videotaped cell images, and was expressed as the percent of originally settled cells. All adhesion experiments were performed at least three times on multiple test fields.

[1] = T cell adhesion under flow, VCAM-1

T1 sequence (P48061 22-89 limits assumed): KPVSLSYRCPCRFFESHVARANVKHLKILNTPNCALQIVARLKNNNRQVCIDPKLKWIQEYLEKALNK

Kind of Effect (SDF-1α; Chemokine checked SDF-1α): Antagonist | Level of Effect (SDF-1α; Chemokine checked SDF-1α, T cells, VCAM-1, peptide 10 μg/ml): + (+ 20%) | Blocking of the activity of SDF-1α (SDF-1α; [1]): about 20% | Kind of Effect (Eotaxin; Chemokine checked EOTAXIN): Antagonist | Level of Effect (Eotaxin; Chemokine checked Eotaxin, T cells, VCAM-1, peptide 10 μg/ml): +++ (+++ 100%) | Blocking of the activity of Eotaxin (Eotaxin; [1]): 100% | Level of Effect (IL-8; Chemokine checked IL-8, T cells, peptide 10 μg/ml): − | Abolishment of the activity of IL-8 (IL-8; T cell adhesion under flow): no effect | Reduction of the activity of MIG (MIG): no effect
Sequence: QIPQMRILHPYG [BKT-P23]
